{"source": "patent US8357523B2", "about": "“Beta-glucosidase variant enzymes and related polynucleotides” (Codexis, Inc., priority 2009, dated 2013)", "key": {"[1]": {"assay": "Enzyme stability: residual activity on pNPG after pre-incubation at high temperature and low pH", "format": "biochemical", "settings": "residual activity on pNPG at pH 7, 30° C."}, "[2]": {"assay": "Activity profile at different temperatures and pH using cellobiose (10 g/L) as substrate", "format": "biochemical", "protocol": "β-glucosidase activity was also determined using a cellobiose assay, which used cellobiose as substrate. In a total volume of 100 μL, 25 μL clear media supernatant containing CelA enzyme was added to 10 g/L cellobiose (Fluka Cat. No. 22150, Sigma-Aldrich, Inc., St. Louis, Mo.) in 100 mM sodium phosphate buffer (pH 6-7) or sodium acetate buffer (pH 5-5.5). The reaction was incubated at 45-70° C. for an appropriate time (25 minutes to overnight depending on the enzyme concentration) while shaking. Glucose production was determined using an enzymatic glucose assay (K-GLUC, Megazyme, Ireland). 10 μl of each reaction was added to 190 μl GOPOD reagent (supplied as part of the K-GLUC assay kit). The reaction was incubated at 45° C. for 20 minutes and the absorbance of the solution was measured at 510 nm. The GOPOD reagent contains 50 mM Potassium phosphate buffer pH7.4, 0.011M p-hydroxybenzoic acid, 0.008% w/v sodium azide, glucose oxidase (>12,000 U/L), peroxidase (>650 U/L) and 80 mg/L 4-aminoantipyrine. The glucose oxidase enzyme in the reagent reacts with any glucose present in the sample and produces hydrogen peroxide which then reacts with the 4-aminoantipyrine to produce a quinoneimine dye in quantities proportionate with the amount of glucose present and can be measured spectrophotometrically at 510 nm. Detectable β-glucosidase activity was observed under high throughput screening conditions (i.e., pH 7, 50° C.).\nThe native CelA activity profile was investigated at different temperatures (40-55° C.) and pH (5.0-8.0) using cellobiose (10 g/L) as a substrate. The experimental and analytical procedures are described in Example 5.\nThe activity profiles for Variant Nos. 264, 366, 391, 463, and 529 were determined at different temperatures and pH using cellobiose (10 g/L) as a substrate. The experimental and analytical procedures are described in Example 5, incubating the variant with cellobiose at temperatures in the range of 45-80. The results are depicted in FIGS. 7-11. […] The temperature and pH profile for this variant is depicted in FIG. 7. […] The temperature and pH profile for this variant is depicted in FIG. 8. […] The temperature and pH profile for this variant is depicted in FIG. 9. […] (with the pH 6 optimum determined by extrapolation). The temperature and pH profile for this variant is depicted in FIG. 10. […] The temperature and pH profile for this variant is depicted in FIG. 11."}}, "data": [{"molecule": "Variant No. 264 (protein) SAAIAQEGAAPAAMLHPEKWPRPATQRLIDPAVEKRVDALLKQLSVEEKVGQVIQGDIGTITPEDLRKYPLGSILAGGDSGPNGDDRAPPKEWLDLADAFYRVSLEKRPGHTPIPVLFGIDAVHGHGNIGSATIFPHNIALGMTRDPELLRRIGEVTAEEMAATGIDWTFAPALSVVRDDRWGRTYEGFSEDPEIVASYSAAIVEGVQGKYGSKDFMAPGRAVACAKHFLADGGTDQGRDQGDARISEDELIRIHNAGYPPAIDAGVLTVMASFSSWQGIKHHGHKQLLTDVLKGQMGFNGFIVGDWNAHDQVPGCTKFNCPTSLIAGLDMYMAADSWKQLYENTLAQVKDGTIPMARLDDAVRRILRVKVLAGLFEKPAPKDRPGLPGLETLGSPEHRAVGREAVRKSLVLLKNDKGTLPLSPKARVLVAGDGADNIGKQSGGWTISWQGTGNRNDEFPGATSILGGIRDAVADAGGSVEFDVAGQYKTKPDVAIVVFGEEPYAEFRGDVETLEYQPDQKQDLTLLKKLKDQGIPVVAVFLSGRPMWVNPELNASDAFVAAWLPGTEGGGVADVLFTDKAGKVQHDFAGKLSYSWPRTAAQTTVNRGDADYNPLFAYGYGLTYKDKSKVGTLPEESGVPAEARQN", "values": [{"measurement": "% residual activity after 10 mins @ pH 5.5, 55° C.", "setting": "[1]; pre-incubation 10 mins at pH 5.5, 55° C., 1 hr", "result": 95, "unit": "%"}, {"measurement": "% residual activity after 1 hour @ pH 5.5, 55° C.", "setting": "[1]; pre-incubation 1 hour at pH 5.5, 55° C.", "result": 78, "unit": "%"}, {"measurement": "% residual activity after 6 hours @ pH 5.5, 55° C.", "setting": "[1]; pre-incubation 6 hours at pH 5.5, 55° C., 1 hr", "result": 11, "unit": "%"}, {"measurement": "pH of optimum activity", "setting": "[2]", "result": 6, "unit": "pH"}, {"measurement": "temperature of optimum activity", "setting": "[2]", "result": 58, "unit": "°C"}]}]}
